The labels stand for the following.
B1: hzB10v21-NNT (Fc fusion)
VHH-Fc: EVQLLESGGGEVQPGGSLRLSCVASGLTFSSYNMGWLRQAPGKEREFVGLSGSSSTSTYYADSVKGRFTISRDNSKNTVYLQMSSLKPEDTAVYYCAARRLLSTYWSDRSWDFWGQGTQVTVEPGGPSVFLFPPKPKDTLMISRTPEVTCVVVDVSHEDPEVKFNWYVDGVEVHNAKTKPREEQYNSTYRVVSVLTVLHQDWLNGKEYKCKVSNKALPAPIEKTISKAKGQPREPQVYTLPPSRDELTKNQVNLTCLVKGFYPSDIAVEWESNGQPENNYKTTPPVLDSDGSFFLNSTLTVDKSRWQQGNVFSCSVMHEALHNHYTQKSLSLSPGK
notes: monomeric
B2: hzB10v23-NNT (Fc fusion)
VHH-Fc: B1 VHH-Fc with S84N, P88A
notes: monomeric
B3: hzB10v26-NNT (Fc fusion)
VHH-Fc: B1 VHH-Fc with L50M, S84N, L101M, E123K
notes: monomeric
B4: hzB10v25-NNT (Fc fusion)
VHH-Fc: B1 VHH-Fc with G49S, S84N
notes: monomeric
B5: hzB10v22-NNT (Fc fusion)
VHH-Fc: B1 VHH-Fc with S84N, K87R
notes: monomeric
B6: hzB10v24-NNT (Fc fusion)
VHH-Fc: B1 VHH-Fc with L37V, S84N
notes: monomeric
B7: hzB10v42-NNT (Fc fusion)
VHH-Fc: B1 VHH-Fc with D62E, N74S, S84T, K87R, P88A, Q119L
notes: monomeric
B8: hzB10v44-NNT (Fc fusion)
VHH-Fc: B1 VHH-Fc with D62E, S75T, S84T, K87R, P88A, Q119L
notes: monomeric
B9: hzB10v41-NNT (Fc fusion)
VHH-Fc: B1 VHH-Fc with D62E, N74Q, S84T, K87R, P88A, Q119L
notes: monomeric
B10: hzB10v43-NNT (Fc fusion)
VHH-Fc: B1 VHH-Fc with D62E, N74T, S84T, K87R, P88A, Q119L
notes: monomeric
B11: hzB10v40 monomeric VHH-hIgG1-Fc fusion (Fc NNT) (Fc fusion)
chain: B1 VHH-Fc with D62E, S75A, S84T, K87R, P88A, Q119L
notes: Humanized variants were tested as monomeric fusions with the non-dimerizing Fc NNT
B12: Anti-IgE sdAb B10 (parental B10 VHH, dimeric VHH-hIgG1-Fc xELL fusion) (Fc fusion)
chain: EVQLVQSGGELVQAGGSLRLSCVASGLTFSSYNMGWLRQAPGKEREFVGMSGSSSTSTYYADSVKGRFTISRDNSKNTVYLQMNSLKPEDTAVYYCAARRMLSTYWSDRSWDFWGQGTQVTVKPDKTHTCPPCPAPGGPSVFLFPPKPKDTLMISRTPEVTCVVVDVSHEDPEVKFNWYVDGVEVHNAKTKPREEQYNSTYRVVSVLTVLHQDWLNGKEYKCKVSNKALPAPIEKTISKAKGQPREPQVYTLPPSRDELTKNQVSLTCLVKGFYPSDIAVEWESNGQPENNYKTTPPVLDSDGSFFLYSKLTVDKSRWQQGNVFSCSVMHEALHNHYTQKSLSLSPGK
B13: hzB10v8-NNT (Fc fusion)
VHH-Fc: B1 VHH-Fc with L5V, E6Q, G10E, E11L, P14A, L50I, S84N, L101M, E123K
notes: monomeric
B14: hzB10v9-NNT (Fc fusion)
VHH-Fc: B1 VHH-Fc with L5V, E6Q, G10E, E11L, P14A, L50V, S84N, L101M, E123K
notes: monomeric
B15: hzB10v13-NNT (Fc fusion)
VHH-Fc: EVQLVQSGGELVQAGGSLRLSCVASGLTFSSYNMGWLRQAPGKEREFVGMSGSSSTSTYYAESVKGRFTISRDNAKNTVYLQMNSLKPEDTAVYYCAARRMLSTYWSDRSWDFWGQGTQVTAKPGGPSVFLFPPKPKDTLMISRTPEVTCVVVDVSHEDPEVKFNWYVDGVEVHNAKTKPREEQYNSTYRVVSVLTVLHQDWLNGKEYKCKVSNKALPAPIEKTISKAKGQPREPQVYTLPPSRDELTKNQVNLTCLVKGFYPSDIAVEWESNGQPENNYKTTPPVLDSDGSFFLNSTLTVDKSRWQQGNVFSCSVMHEALHNHYTQKSLSLSPGK
notes: monomeric
B16: hzB10v12-NNT (Fc fusion)
VHH-Fc: B15 VHH-Fc with E62D, A75S, M101V, A122V
notes: monomeric
B17: hzB10v10-NNT (Fc fusion)
VHH-Fc: B15 VHH-Fc with E62D, A75S, M101L
notes: monomeric
B18: hzB10v11-NNT (Fc fusion)
VHH-Fc: B15 VHH-Fc with E62D, A75S, M101I, A122V
notes: monomeric
B19: hzB10v27-NNT (Fc fusion)
VHH-Fc: B1 VHH-Fc with D62E, S84N, K87R, P88A
notes: monomeric
B20: hzB10v29-NNT (Fc fusion)
VHH-Fc: B1 VHH-Fc with D62E, S84Q, K87R, P88A
notes: monomeric
B21: hzB10v33-NNT (Fc fusion)
VHH-Fc: B1 VHH-Fc with G49S, D62E, S84N, K87R, P88A
notes: monomeric
B22: hzB10v32-NNT (Fc fusion)
VHH-Fc: B1 VHH-Fc with L37V, D62E, S84N, K87R, P88A
notes: monomeric
B23: hzB10v34-NNT (Fc fusion)
VHH-Fc: B1 VHH-Fc with L37V, G49S, D62E, S84N, K87R, P88A
notes: monomeric
B24: hzB10v28-NNT (Fc fusion)
VHH-Fc: B1 VHH-Fc with D62E, K87R, P88A
notes: monomeric
B25: hzB10v31-NNT (Fc fusion)
VHH-Fc: B1 VHH-Fc with D62E, S84N, S85T, K87R, P88A
notes: monomeric

One may read the Kd as the concentration at which binding is half-saturated. The low end stands for a tighter complex, the high end for a looser complex.

Where a chain is given by its changes, count along the chain named.

T1 sequence (P01854 other isoform, or with tags, fused parts or gaps): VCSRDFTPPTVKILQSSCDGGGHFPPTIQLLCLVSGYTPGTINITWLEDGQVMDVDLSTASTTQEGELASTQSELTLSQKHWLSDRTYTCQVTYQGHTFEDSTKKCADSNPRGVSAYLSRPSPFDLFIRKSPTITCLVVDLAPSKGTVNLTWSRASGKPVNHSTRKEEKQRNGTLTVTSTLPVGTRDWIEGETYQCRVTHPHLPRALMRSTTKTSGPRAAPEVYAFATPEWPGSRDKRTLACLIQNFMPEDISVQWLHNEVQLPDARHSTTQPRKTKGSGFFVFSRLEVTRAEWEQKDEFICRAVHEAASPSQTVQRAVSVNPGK

One experiment has as its target T1, CH2-4 constant domains of human IgE linked to a transmembrane protein, on 293 cells (human, UniProt P01854-1 104-428).
T1 construct: domain: CH2-4 constant domains; also called human IgE-expressing 293 cells
Put plainly: flow cytometry, 293 cells expressing human IgE CH2-4. As for the experimental part:
(§1) First, 25 μg of DNA was added to Opti-MEM Reduced Serum Medium (Gibco) mixed with 75 μL of 40 kDa Polyethylenimine (PEI) for a final concentration of 1 μg DNA and 2.5 μg PEI per mL of culture volume. The plasmid DNA was allowed to pre-complex with PEI for 15 minutes before transferring the mixture to 25 mL of 293 cells in a shake flask at a density of 2×10⁶ cells/mL. […] Next, 50 μL of cells were transferred to wells of a round-bottom 96-well assay plate for a total of 50,000 293 cells per well. In a separate 96-well plate, monomeric VHH-hIgG1-Fc fusion proteins were titrated 1:5 in a 8-point dilution series starting at 1 μM in FACS Buffer with the 8th point containing no antibody. 50 μL from each antibody dilution was added to wells containing 50 μL of FACS Buffer with transfected 293 cells which produced a 2-fold dilution of the antibody concentrations from the dilution series resulting in a 500 nM final, starting concentration of the test article titration. The test articles and 293 cells were incubated together at 4° C. for 30 minutes. Next, the 96-well plates were centrifuged at 400×g for 5 minutes and the FACS buffer containing unbound antibody was decanted. Cells were washed 1× with 150 μL 4° C. FACS Buffer. […] The cells were incubated with the fluorophore conjugated detection antibody at 4° C. for 20 minutes. 293 cells were then centrifuged and washed once as described above. Cell pellets were resuspended in 30 μL FACS Buffer and analyzed on an iQue Screener Plus flow cytometer (Sartorius, IntelliCyt) with a 1 second sip time and 1 second void time. Mean fluorescent intensity was calculated using iQue onboard software gating on GFP+ or citrine+ cells.
Take B1: the Bmax was 1.72e+06 MFI and the dissociation constant (Kd) was found to be 6.4 nM.
For B2, the Bmax was 1.96e+06 MFI and binding was put at a Kd of 1.05 nM.
Molecule B3 displayed a dissociation constant Kd of 1.43 nM.
The molecule B4 displayed a Bmax of 2.01e+06 MFI and a dissociation constant Kd of 2.8 nM.
In turn, B5 had a Bmax of 2.08e+06 MFI and a Kd of 2.39 nM.
For B6, in that order: 1.92e+06 MFI and 2.52 nM.

A further experiment deals with T1, CH2-4 constant domains of human IgE …. Described as above. This is another data set of the same source. As for the experimental part: as §1
For B7, the Bmax was found to be 1.45e+06 MFI and the Kd is 2.27 nM.
The corresponding values for B8 are 1.38e+06 MFI and 2.37 nM.
The corresponding values for B9 are 1.33e+06 MFI and 2.26 nM.
With B10, the Bmax came out at 1.42e+06 MFI and the dissociation constant (Kd) worked out at 2.18 nM.
For B11, in that order: 1.38e+06 MFI and 2.62 nM.

The next experiment shares this target. Described as above. This is another data set of the same source. As to the method: as §1
Regarding B12, the Kd is 0.893 nM.

For another experiment the target is unchanged. The experiment is described as above. This is another data set of the same source. As for the experimental part:
as §1
The molecule B13 had a Bmax of 2.75e+06 MFI and a dissociation constant (Kd) of 2.74 nM.
For B14, in that order: 2.83e+06 MFI and 2.82 nM.
For B15, in that order: 2.82e+06 MFI and 3.49 nM.
In the case of B16, the Bmax stood at 2.72e+06 MFI and binding was characterised by a dissociation constant (Kd) of 2.37 nM.
The corresponding values for B17 are 2.76e+06 MFI and 1.19 nM.
Consider B18, for which the Bmax turned out to be 3.41e+06 MFI and the affinity, expressed as Kd, was 15.6 nM.
For B12, in that order: 2.25e+06 MFI and 0.893 nM.

The target is the same in a further experiment. The description is as above. The source holds these as a separate data set. As to the method:
as §1
B19 yielded a Bmax of 753000 MFI and a Kd of 1.16 nM.
The corresponding values for B20 are 605000 MFI and 2.31 nM.
For B21, the Bmax amounted to 617000 MFI and the dissociation constant (Kd) is 1.94 nM.
For B22, in that order: 706000 MFI and 1.33 nM.
The corresponding values for B23 are 375000 MFI and 0.55 nM.
As for B24, the Bmax turned out to be 1.12e+08 MFI and the Kd came out at 7070 nM.
In the case of B25, the Bmax came to 575000 MFI and binding was put at a Kd of 0.978 nM.
